B1: Cryptochrome-2 (Mus musculus), Q9R194 (parent)
chain: MAAAAVVAATVPAQSMGADGASSVHWFRKGLRLHDNPALLAAVRGARCVRCVYILDPWFAASSSVGINRWRFLLQSLEDLDTSLRKLNSRLFVVRGQPADVFPRLFKEWGVTRLTFEYDSEPFGKERDAAIMKMAKEAGVEVVTENSHTLYDLDRIIELNGQKPPLTYKRFQALISRMELPKKPAVAVSSQQMESCRAEIQENHDDTYGVPSLEELGFPTEGLGPAVWQGGETEALARLDKHLERKAWVANYERPRMNANSLLASPTGLSPYLRFGCLSCRLFYYRLWDLYKKVKRNSTPPLSLFGQLLWREFFYTAATNNPRFDRMEGNPICIQIPWDRNPEALAKWAEGKTGFPWIDAIMTQLRQEGWIHHLARHAVACFLTRGDLWVSWESGVRVFDELLLDADFSVNAGSWMWLSCSAFFQQFFHCYCPVGFGRRTDPSGDYIRRYLPKLKGFPSRYIYEPWNAPESVQKAAKCIIGVDYPRPIVNHAETSRLNIERMKQIYQQLSRYRGLCLLASVPSCVEDLSHPVAEPGSSQAGSISNTGPRALSSGPASPKRKLEAAEEPPGEELTKRARVTEMPTQEPASKDS

Variants of: B1
Conditions: with per2_mouse Per2, O54943
per2_mouse Per2, O54943, sequence (O54943 whole entry): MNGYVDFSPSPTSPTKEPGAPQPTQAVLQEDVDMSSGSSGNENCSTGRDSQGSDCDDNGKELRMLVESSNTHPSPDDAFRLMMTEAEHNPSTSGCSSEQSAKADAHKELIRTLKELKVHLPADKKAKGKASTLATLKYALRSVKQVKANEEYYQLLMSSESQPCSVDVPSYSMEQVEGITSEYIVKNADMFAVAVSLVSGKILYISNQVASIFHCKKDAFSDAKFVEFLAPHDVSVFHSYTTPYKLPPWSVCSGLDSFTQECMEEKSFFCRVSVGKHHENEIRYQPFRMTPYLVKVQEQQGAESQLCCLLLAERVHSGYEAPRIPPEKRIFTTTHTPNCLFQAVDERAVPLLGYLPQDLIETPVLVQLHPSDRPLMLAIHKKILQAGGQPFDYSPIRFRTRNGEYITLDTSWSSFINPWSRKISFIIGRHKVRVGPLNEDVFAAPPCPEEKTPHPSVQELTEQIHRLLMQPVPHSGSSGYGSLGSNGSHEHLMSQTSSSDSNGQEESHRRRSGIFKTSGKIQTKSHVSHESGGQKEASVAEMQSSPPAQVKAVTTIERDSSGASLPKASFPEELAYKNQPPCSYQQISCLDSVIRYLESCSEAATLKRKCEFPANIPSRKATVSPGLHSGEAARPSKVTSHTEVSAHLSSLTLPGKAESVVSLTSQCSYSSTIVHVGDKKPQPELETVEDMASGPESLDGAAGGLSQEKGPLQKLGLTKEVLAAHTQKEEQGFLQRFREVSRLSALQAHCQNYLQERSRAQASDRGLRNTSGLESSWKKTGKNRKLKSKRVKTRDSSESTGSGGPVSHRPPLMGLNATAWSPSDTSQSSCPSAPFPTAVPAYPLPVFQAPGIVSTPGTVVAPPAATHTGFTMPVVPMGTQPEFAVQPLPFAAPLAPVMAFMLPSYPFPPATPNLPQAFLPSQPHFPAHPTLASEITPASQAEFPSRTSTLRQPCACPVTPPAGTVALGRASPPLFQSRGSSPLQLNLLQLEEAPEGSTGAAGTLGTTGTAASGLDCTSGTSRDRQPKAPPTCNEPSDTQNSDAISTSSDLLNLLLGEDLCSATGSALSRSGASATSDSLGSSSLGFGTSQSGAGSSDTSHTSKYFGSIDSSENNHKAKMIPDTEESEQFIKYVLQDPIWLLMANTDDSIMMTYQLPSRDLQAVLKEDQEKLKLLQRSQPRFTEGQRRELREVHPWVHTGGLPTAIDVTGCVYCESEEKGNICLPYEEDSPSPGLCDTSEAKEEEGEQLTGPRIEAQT

Variant | effect of a mutation on the interaction
MAAAAVVAATVPAQSMGADGASSVHWFRKGLRLHDNPALLAAVRGARCVRCVYILDPWFAASSSVGINRWRFLLQSLEDLDTSLRKLNSRLFVVRGQPADVFPRLFKEWGVTRLTFEYDSEPFGKERDAAIMKMAKEAGVEVVTENSHTLYDLDRIIELNGQKPPLTYKRFQALISRMELPKKPAVAVSSQQMESCRAEIQENHDDTYGVPSLEELGFPTEGLGPAVWQGGETEALARLDKHLERKAWVANYERPRMNANSLLASPTGLSPYLRFGCLSCRLFYYRLWDLYKKVKRNSTPPLSLFGQLLWREFFYTAATNNPRFDRMEGNPICIQIPWDRNPEALAKWAEGKTGFPWIDAIMTQLRQEGWIHHLARHAVACFLTRGDLWVSWESGVRVFDELLLDADFSVNAGSWMWLSCSAFFQQFFHCYCPVGFGRRTDPSGDYIRRYLPKLKGFPSRYIYEPWNAPESVQKAAKCIIGVDYPRPIVNHAETGRPNTEQMRQTYQQPSRYRGLCLLASVPSCVEDLSHPVAEPGSSQAGSISNTGPRALSSGPASPKRKLEAAEEPPGEELTKRARVTEMPTQEPASKDS [S495G;L497P;I499T;R501Q;K503R;I505T;L509P] | decreasing interaction
MAAAAVVAATVPAQSMGADGASSVHWFRKGLRLHDNPALLAAVRGARCVRCVYILDPWFAASSSVGINRWRFLLQSLEDLDTSLRKLNSRLFVVRGQPADVFPRLFKEWGVTRLTFEYDSEPFGKERDAAIMKMAKEAGVEVVTENSHTLYDLDRIIELNGQKPPLTYKRFQALISRMELPKKPAVAVSSQQMESCRAEIQENHDDTYGVPSLEELGFPTEGLGPAVWQGGETEALARLDKHLERKAWVANYERPRMNANSLLASPTGLSPYLRFGCLSCRLFYYRLWDLYKKVKRNSTPPLSLFGQLLWREFFYTAATNNPRFDRMEGNPICIQIPWDRNPEALAKWAEGKTGFPWIDAIMTQLRQEGWIHHLARHAVACFLTRGDLWVSWESGVRVFDELLLDADFSVNAGSWMWLSCSAFFQQFFHCYCPVGFGRRTDPSGDYIRRYLPKLKGFPSRYIYEPWNAPESVQKAAKCIIGVDYPRPIVNHAETSRLNTEQMKQIYQQLSRYRGLCLLASVPSCVEDLSHPVAEPGSSQAGSISNTGPRALSSGPASPKRKLEAAEEPPGEELTKRARVTEMPTQEPASKDS [I499T;R501Q] | decreasing interaction
MAAAAVVAATVPAQSMGADGASSVHWFRKGLRLHDNPALLAAVRGARCVRCVYILDPWFAASSSVGINRWRFLLQSLEDLDTSLRKLNSRLFVVRGQPADVFPRLFKEWGVTRLTFEYDSEPFGKERDAAIMKMAKEAGVEVVTENSHTLYDLDRIIELNGQKPPLTYKRFQALISRMELPKKPAVAVSSQQMESCRAEIQENHDDTYGVPSLEELGFPTEGLGPAVWQGGETEALARLDKHLERKAWVANYERPRMNANSLLASPTGLSPYLRFGCLSCRLFYYRLWDLYKKVKRNSTPPLSLFGQLLWREFFYTAATNNPRFDRMEGNPICIQIPWDRNPEALAKWAEGKTGFPWIDAIMTQLRQEGWIHHLARHAVACFLTRGDLWVSWESGVRVFDELLLDADFSVNAGSWMWLSCSAFFQQFFHCYCPVGFGRRTDPSGDYIRRYLPKLKGFPSRYIYEPWNAPESVQKAAKCIIGVDYPRPIVNHAETSRPNTEQMKQTYQQPSRYRGLCLLASVPSCVEDLSHPVAEPGSSQAGSISNTGPRALSSGPASPKRKLEAAEEPPGEELTKRARVTEMPTQEPASKDS [L497P;I499T;R501Q;I505T;L509P] | decreasing interaction
MAAAAVVAATVPAQSMGADGASSVHWFRKGLRLHDNPALLAAVRGARCVRCVYILDPWFAASSSVGINRWRFLLQSLEDLDTSLRKLNSRLFVVRGQPADVFPRLFKEWGVTRLTFEYDSEPFGKERDAAIMKMAKEAGVEVVTENSHTLYDLDRIIELNGQKPPLTYKRFQALISRMELPKKPAVAVSSQQMESCRAEIQENHDDTYGVPSLEELGFPTEGLGPAVWQGGETEALARLDKHLERKAWVANYERPRMNANSLLASPTGLSPYLRFGCLSCRLFYYRLWDLYKKVKRNSTPPLSLFGQLLWREFFYTAATNNPRFDRMEGNPICIQIPWDRNPEALAKWAEGKTGFPWIDAIMTQLRQEGWIHHLARHAVACFLTRGDLWVSWESGVRVFDELLLDADFSVNAGSWMWLSCSAFFQQFFHCYCPVGFGRRTDPSGDYIRRYLPKLKGFPSRYIYEPWNAPESVQKAAKCIIGVDYPRPIVNHAETSRLNIEQMRQIYQQLSRYRGLCLLASVPSCVEDLSHPVAEPGSSQAGSISNTGPRALSSGPASPKRKLEAAEEPPGEELTKRARVTEMPTQEPASKDS [R501Q;K503R] | decreasing interaction
MAAAAVVAATVPAQSMGADGASSVHWFRKGLRLHDNPALLAAVRGARCVRCVYILDPWFAASSSVGINRWRFLLQSLEDLDTSLRKLNSRLFVVRGQPADVFPRLFKEWGVTRLTFEYDSEPFGKERDAAIMKMAKEAGVEVVTENSHTLYDLDRIIELNGQKPPLTYKRFQALISRMELPKKPAVAVSSQQMESCRAEIQENHDDTYGVPSLEELGFPTEGLGPAVWQGGETEALARLDKHLERKAWVANYERPRMNANSLLASPTGLSPYLRFGCLSCRLFYYRLWDLYKKVKRNSTPPLSLFGQLLWREFFYTAATNNPRFDRMEGNPICIQIPWDRNPEALAKWAEGKTGFPWIDAIMTQLRQEGWIHHLARHAVACFLTRGDLWVSWESGVRVFDELLLDADFSVNAGSWMWLSCSAFFQQFFHCYCPVGFGRRTDPSGDYIRRYLPKLKGFPSRYIYEPWNAPESVQKAAKCIIGVDYPRPIVNHAETSRLNTERMRQTYQQPSRYRGLCLLASVPSCVEDLSHPVAEPGSSQAGSISNTGPRALSSGPASPKRKLEAAEEPPGEELTKRARVTEMPTQEPASKDS [I499T;K503R;I505T;L509P] | decreasing interaction
MAAAAVVAATVPAQSMGADGASSVHWFRKGLRLHDNPALLAAVRGARCVRCVYILDPWFAASSSVGINRWRFLLQSLEDLDTSLRKLNSRLFVVRGQPADVFPRLFKEWGVTRLTFEYDSEPFGKERDAAIMKMAKEAGVEVVTENSHTLYDLDRIIELNGQKPPLTYKRFQALISRMELPKKPAVAVSSQQMESCRAEIQENHDDTYGVPSLEELGFPTEGLGPAVWQGGETEALARLDKHLERKAWVANYERPRMNANSLLASPTGLSPYLRFGCLSCRLFYYRLWDLYKKVKRNSTPPLSLFGQLLWREFFYTAATNNPRFDRMEGNPICIQIPWDRNPEALAKWAEGKTGFPWIDAIMTQLRQEGWIHHLARHAVACFLTRGDLWVSWESGVRVFDELLLDADFSVNAGSWMWLSCSAFFQQFFHCYCPVGFGRRTDPSGDYIRRYLPKLKGFPSRYIYEPWNAPESVQKAAKCIIGVDYPRPIVNHAETGRPNTERMRQTYQQPSRYRGLCLLASVPSCVEDLSHPVAEPGSSQAGSISNTGPRALSSGPASPKRKLEAAEEPPGEELTKRARVTEMPTQEPASKDS [S495G;L497P;I499T;K503R;I505T;L509P] | decreasing interaction
MAAAAVVAATVPAQSMGADGASSVHWFRKGLRLHDNPALLAAVRGARCVRCVYILDPWFAASSSVGINRWRFLLQSLEDLDTSLRKLNSRLFVVRGQPADVFPRLFKEWGVTRLTFEYDSEPFGKERDAAIMKMAKEAGVEVVTENSHTLYDLDRIIELNGQKPPLTYKRFQALISRMELPKKPAVAVSSQQMESCRAEIQENHDDTYGVPSLEELGFPTEGLGPAVWQGGETEALARLDKHLERKAWVANYERPRMNANSLLASPTGLSPYLRFGCLSCRLFYYRLWDLYKKVKRNSTPPLSLFGQLLWREFFYTAATNNPRFDRMEGNPICIQIPWDRNPEALAKWAEGKTGFPWIDAIMTQLRQEGWIHHLARHAVACFLTRGDLWVSWESGVRVFDELLLDADFSVNAGSWMWLSCSAFFQQFFHCYCPVGFGRRTDPSGDYIRRYLPKLKGFPSRYIYEPWNAPESVQKAAKCIIGVDYPRPIVNHAGTSRPNIERMRQTYQQPSRYRGLCLLASVPSCVEDLSHPVAEPGSSQAGSISNTGPRALSSGPASPKRKLEAAEEPPGEELTKRARVTEMPTQEPASKDS [E493G;L497P;K503R;I505T;L509P] | decreasing interaction
MAAAAVVAATVPAQSMGADGASSVHWFRKGLRLHDNPALLAAVRGARCVRCVYILDPWFAASSSVGINRWRFLLQSLEDLDTSLRKLNSRLFVVRGQPADVFPRLFKEWGVTRLTFEYDSEPFGKERDAAIMKMAKEAGVEVVTENSHTLYDLDRIIELNGQKPPLTYKRFQALISRMELPKKPAVAVSSQQMESCRAEIQENHDDTYGVPSLEELGFPTEGLGPAVWQGGETEALARLDKHLERKAWVANYERPRMNANSLLASPTGLSPYLRFGCLSCRLFYYRLWDLYKKVKRNSTPPLSLFGQLLWREFFYTAATNNPRFDRMEGNPICIQIPWDRNPEALAKWAEGKTGFPWIDAIMTQLRQEGWIHHLARHAVACFLTRGDLWVSWESGVRVFDELLLDADFSVNAGSWMWLSCSAFFQQFFHCYCPVGFGRRTDPSGDYIRRYLPKLKGFPSRYIYEPWNAPESVQKAAKCIIGVDYPRPIVNHAETSRLNTEQMKQTYQQPSRYRGLCLLASVPSCVEDLSHPVAEPGSSQAGSISNTGPRALSSGPASPKRKLEAAEEPPGEELTKRARVTEMPTQEPASKDS [I499T;R501Q;I505T;L509P] | decreasing interaction

Reference: IntAct's records for PubMed 20840750
